Results on 28 molecules are retold here after patent US20220332795A1.

For this test, the target named is human serum albumin (human) (UniProt P02768). Description: primary solution ELISA screen. Background: In an ELISA, binding on a coated surface is turned into a signal by an enzyme label.
Chain of human serum albumin (human) (P02768 25-609 limits assumed): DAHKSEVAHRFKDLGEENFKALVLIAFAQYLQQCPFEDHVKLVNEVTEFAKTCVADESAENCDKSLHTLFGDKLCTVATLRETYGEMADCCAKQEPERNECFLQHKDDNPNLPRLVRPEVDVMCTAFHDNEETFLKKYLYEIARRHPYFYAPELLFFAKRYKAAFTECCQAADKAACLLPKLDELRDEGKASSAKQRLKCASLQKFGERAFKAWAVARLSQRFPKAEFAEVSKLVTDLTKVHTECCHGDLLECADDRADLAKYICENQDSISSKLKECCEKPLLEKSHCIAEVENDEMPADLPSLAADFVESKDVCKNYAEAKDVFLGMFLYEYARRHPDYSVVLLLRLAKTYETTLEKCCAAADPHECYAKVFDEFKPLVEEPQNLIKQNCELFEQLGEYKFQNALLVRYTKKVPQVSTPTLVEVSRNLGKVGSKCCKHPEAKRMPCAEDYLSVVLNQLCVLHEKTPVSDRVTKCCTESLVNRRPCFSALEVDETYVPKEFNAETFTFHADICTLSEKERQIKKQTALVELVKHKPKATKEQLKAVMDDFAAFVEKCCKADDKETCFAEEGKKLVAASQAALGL

B1: SEQ ID NO 97 (designed binder, not shown: small tags and cut ends)
chain: MLPAPKNLVVSRVTEDSARLSWTAPDAAFDSFHIWYEEETTIGEAIYLHVPGSERSYDLTGLKPGTEYEVHITGVKGGPYSRPLFANFTT
Molecule B1 had an RLU of 6500 RLU.

B2: SEQ ID NO 79 (designed binder, not shown: small tags and cut ends)
chain: MLPAPKNLVVSRVTEDSARLSWTAPDAAFDSFVIEYTERFWSGEAIVLTVPGSERSYDLTGLKPGTEYSVPIDGVKGGQCSTPLSAIFTT
Turning to B2, the RLU is 6000 RLU.

B3: SEQ ID NO 87 (designed binder, not shown: small tags and cut ends)
chain: MLPAPKNLVVSRVTEDSARLSWTAPDAAFDSFAIEYTEFLYSGEAIVLTVPGSERSYDLTGLKPGTEYGVPINGVKGGFVSPPLSAIVTT
Regarding B3, the RLU worked out at 3650 RLU.

B4: SEQ ID NO 81 (designed binder, not shown: small tags and cut ends)
chain: MLPAPKNLVVSRVTEDSARLSWQGVARAFDSFLITYVELRHLGEAIVLTVPGSERSYDLTGLKPGTEYPVWIQGVKGGSPSAPLSAEFTT
B4 registered an RLU of 9850 RLU.

B5: SEQ ID NO 94 (designed binder, not shown: small tags and cut ends)
chain: MLPAPKNLVVSEVTEDSARLSWQGVARAFDSFLITYREQIFAGEVIVLTVPGSERSYDLTGLKPGTEYPVWIQGVKGGSPSAPLSAIFTT
For the molecule B5, the RLU was found to be 87200 RLU.

B6: SEQ ID NO 84 (designed binder, not shown: small tags and cut ends)
chain: MLPAPKNLVVSRVTEDSARLSWQGVARAFDSFSILYLELTPKGEAIVLTVPGSERSYDLTGLKPGTEYPVWIQGVKGGSPSAPLSAEFTT
In the case of B6, the RLU came out at 127000 RLU.

B7: SEQ ID NO 15 (designed binder, not shown: small tags and cut ends)
chain: MLPAPKNLVVSRVTEDSARLSWQGVARAFDSFLITYREQIFAGEVIVLTVPGSERSYDLTGLKPGTECPVWIQGVKGGSPSAPLSAEFTT
B7: the RLU came to 14400 RLU.

B8: SEQ ID NO 102 (designed binder, not shown: small tags and cut ends)
chain: MLPAPKNLVVSRVTEDSARLSWQGVARAFDSFLITYREQIFAGEVIVLTVPGSERSYDLTGLKPGTEYPVWIQGVKGGSPSAPLSAEFTT
Consider B8, for which the RLU is 39700 RLU.

B9: SEQ ID NO 80 (designed binder, not shown: small tags and cut ends)
chain: MLPAPKNLVVSRVTEDSARLSWTAPDAAFDSFWIDYEEEGVIGEAIYLHVPGSERSYDLTGLKPGTEYVVKIHGVKGGHPSHPLVAVFTT
In turn, B9 registered an RLU of 33600 RLU.

B10: SEQ ID NO 82 (designed binder, not shown: small tags and cut ends)
chain: MLPAPKNLVVSRVTEDSARLSWTAPDAAFDSFLIPYAETSPSGEAIVLTVPGSERSYDLTGLKPGTEYSVLIHGVKGGDYSSPLSAIFTT
B10: the RLU came to 14800 RLU.

B11: SEQ ID NO 99 (designed binder, not shown: small tags and cut ends)
chain: MLPAPKNLVVSRVTEDSARLSWTAPDAAFDSFFIPYAEPSPTGEAIVLTVPGSERSYDLTGLKPGTEYSVLIHGVKGGHLSDPLSVIFTT
For the molecule B11, the RLU stood at 9850 RLU.

B12: SEQ ID NO 12 (designed binder, not shown: small tags and cut ends)
chain: MLPAPKNLVVSRVTEDSARLSWTAPDAAFDSFFIPYAEPSPTGEAIVLTVPGSERSYDLTGLKPGTEYSVLIHGVKGGHLSDPLSAISTT
Regarding B12, the RLU was 49000 RLU.

B13: SEQ ID NO 83 (designed binder, not shown: small tags and cut ends)
chain: MLPAPKNLVVSRVTEDSARLSWTAPDAAFDSFPIAYAEPRPDGEAIVLTVPGSERSYDLTGLKPGTEYSVLIHGVKGGLLSSPLSAISTT
As for B13, the RLU is 111000 RLU.

B14: SEQ ID NO 100 (designed binder, not shown: small tags and cut ends)
chain: MLPAPKNLVVSRVTEDSARLSWTAPDAAFDSFYIWYEEVMYLGEAIVLTVPGSERSYDLTGLKPGTEYNVPIPGVKGGHSSPPLSAIFTT
In the case of B14, the RLU was determined as 5150 RLU.

B15: SEQ ID NO 85 (designed binder, not shown: small tags and cut ends)
chain: MLPAPKNLVVSRVTEDSARLSWTAPDAAFDSFIIEYFEPIPIGEAIVLTVPGSERSYDLTGLKPGTEYAVNIYGVKGGYLSHPLSAIFTT
In turn, B15 had an RLU of 6350 RLU.

B16: SEQ ID NO 18 (designed binder, not shown: small tags and cut ends)
chain: MLPAPKNLVVSRVTEDSARLSWTAPDAAFDSFNIMYHEIIYVGEAIVLTVPGSERSYDLTGLKPGTEYPVPIEGVKGGGTSGPLSAIFTT
Take B16: the RLU was found to be 10400 RLU.

B17: SEQ ID NO 96 (designed binder, not shown: small tags and cut ends)
chain: MSLPAPKNLVVSRVTEDSARLSWTAPDAAFDSFPIAYLEVFYEGEAIVLTVPGSERSYDLTGLKPGTEYQVPIEGVKGGAMSLPLSAIFTT
Regarding B17, the RLU is 15200 RLU.

B18: SEQ ID NO 90 (designed binder, not shown: small tags and cut ends)
chain: MLPAPKNLVVSRVTEDSARLSWQGVARAFDSFLITYREQIFAGEVIVLTVPGSERSYDLTGLKPGTEYPVWIQGVKGGSPSAEFTT
In turn, B18 had an RLU of 12400 RLU.

B19: SEQ ID NO 88 (designed binder, not shown: small tags and cut ends)
chain: MLPAPKNLVVSRVTEDSARLSWTAPDAAFDSFPIKYREVLRCGEAIVLTVPGSERSYDLTGLKPGTEYTVPITGVKGGFGSSPLSAIFTT
B19 returned an RLU of 24200 RLU.

B20: SEQ ID NO 17 (designed binder, not shown: small tags and cut ends)
chain: MLPAPKNLVVSRVTEDSARLSWTAPDAAFDSFPILYTECVYRGEAIVLTVPGSERSYDLTGLKPGTEYHVPITGVKGGGGSWPLSAIFTT
As to B20, the RLU is 3650 RLU.

B21: SEQ ID NO 10 (designed binder, not shown: small tags and cut ends)
chain: MLPAPKNLVVSRVTEDSARLSWTAPDAAFDSFKIAYIETATRGEAIVLTVPGSERSYDLTGLKPGTEYVVPIPGVKGGNTSSPLSAIFTT
B21 yielded an RLU of 29300 RLU.

B22: SEQ ID NO 13 (designed binder, not shown: small tags and cut ends)
chain: MLPAPKNLVVSRVTEDSARLSWTAPDAAFDSFLIAYPEDGFRGEAIVLTVPGSERSYDLTGLKPGTEYPVPILGVKGGGGSGPLSAIFTT
As to B22, the RLU was 24600 RLU.

B23: SEQ ID NO 19 (designed binder, not shown: small tags and cut ends)
chain: MLPAPKNLVVSRVTEDSARLSWTAPDAAFDSFAITYTEAALCGEAIVLTVPGSERSYDLTGLKPGTEYPVPINGVKGGGTSGPLSAIFTT
Molecule B23 displayed an RLU of 17900 RLU.

B24: SEQ ID NO 20 (designed binder, not shown: small tags and cut ends)
chain: MLPAPKNLVVARVTEDSARLSWTAPDAAIDSFPIDYSEYWWGGEAIVLTVPGSERSYDLTGLKPGTEYPVLITGVKGGYRSGPLSAIFTT
In turn, B24 came in with an RLU of 18400 RLU.

B25: SEQ ID NO 93 (designed binder, not shown: small tags and cut ends)
chain: MLPAPKNLVVSRVTEDSARLSWTAPDAAFDSFAIEYYEPVPAGEAIYLDVPGSERSYDLTGLKPGTEYDVTIYGVKGGYYSHPLFASFTT
The molecule B25 registered an RLU of 4750 RLU.

B26: SEQ ID NO 89 (designed binder, not shown: small tags and cut ends)
chain: MLPAPENLVVSRVTEDSARLSWTAPDAAFDSFWIEYYEGVIQGEAIVLTVPGSERSYDLTGLKPGTEYFVAIWGVKGGKWSVPLSAIFTT
Molecule B26 yielded an RLU of 6500 RLU.

B27: SEQ ID NO 21 (designed binder, not shown: small tags and cut ends)
chain: MLPAPKNLVVSRVTEDSARLSWTAPDAAFDSFSIRYNEFIVAGEAIVLTVPGSERSYDLTGLKPGTEYDVPIAGVKGGGASWPLSAIVTT
The molecule B27 returned an RLU of 6850 RLU.

B28: SEQ ID NO 2 (designed binder, not shown: small tags and cut ends)
chain: MLPAPKNLVVSEVTEDSARLSWQGVARAFDSFMINYSELFWMGEAIVLTVPGSERSYDLTGLKPGTEYVVRIKGVKGGKGSWPLHAHFTT
On to B28, for which the RLU was 28400 RLU.
